The text below walks through data of the supplement of paper PMC10899765.

What all share (details): 20 nM; 72 h
For series [1], the system named is MCF10A. As to the kind of experiment: percent viability (nuclei count relative to siNT); higher = more viable cells. The method, then:
(§1)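 After 72 h, cells were fixed and stained with Hoechst and anti-fibrillarin, and nucleoli per nucleus were counted with CellProfiler. Values are plate-adjusted percent effect for the one-nucleolus and 5+ nucleoli phenotypes, normalised to siNT (0%) and to the positive controls siNOL11 or siKIF11 (100%), as the mean of biological triplicates. Percent viability is the nuclei count relative to siNT.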

Series [2] deals with MCF10A. As to the kind of experiment: 5+ nucleoli phenotype percent effect (relative to siNT 0% and siKIF11 100%); higher = more cells with five or more nucleoli. The method, then: as §1
For series [3], the system named is MCF10A. As to the kind of experiment: one-nucleolus phenotype percent effect (relative to siNT 0% and siNOL11 100%); higher = more cells with one nucleolus (ribosome biogenesis inhibition). The method, then:
as §1

As to CCGGUUCCAGUCCCUGGAG [hsa-miR-6070], the percent viability with MCF10A [1] was 55.6%. Moreover, in the series with MCF10A [2], the “5+ nucleoli phenotype percent effect” value is -6.27%. Besides, the “one-nucleolus phenotype percent effect” value in the series on MCF10A [3] turned out to be 16.9%.

Turning to CCGUGUUUCCCCCACGCUUU [hsa-miR-3676-3p], the percent viability in the series on MCF10A [1] worked out at 72.3%. In the series on MCF10A [2], the “5+ nucleoli phenotype percent effect” value is -17.2%. Besides, the “one-nucleolus phenotype percent effect” value in the series with MCF10A [3] amounted to 4.15%.

On to “CCUAAUUUGAACACCUUCGGUA [hsa-miR-4735-5p]”, for which, in the series on MCF10A [1], the percent viability was determined as 80.8%. The “5+ nucleoli phenotype percent effect” value in the series with MCF10A [2] was 8.71%. Moreover, in the series with MCF10A [3], the “one-nucleolus phenotype percent effect” value is -11.3%.

Regarding CCUAGAAACUGUAAACUUAGUC [hsa-miR-8067], the percent viability in the series with MCF10A [1] was determined as 108%. For the same sequence, the “5+ nucleoli phenotype percent effect” value in the series with MCF10A [2] came to 47.4%. For the same sequence, the “one-nucleolus phenotype percent effect” value in the series with MCF10A [3] was -35.3%.

Regarding CCUAGACACCUCCAGUUC [hsa-miR-4305], the percent viability in the series with MCF10A [1] turned out to be 39.4%. Further, the “5+ nucleoli phenotype percent effect” value in the series on MCF10A [2] was -1.06%. Also, the “one-nucleolus phenotype percent effect” value with MCF10A [3] is -1.35%.

As for CCUAGUAGGUGUCCAGUAAGUGU [hsa-miR-325], the percent viability in the series with MCF10A [1] worked out at 58%. Further, in the series with MCF10A [2], the “5+ nucleoli phenotype percent effect” value turned out to be 25%. Also, the “one-nucleolus phenotype percent effect” value in the series on MCF10A [3] was -12.1%.

On to “CCUAUUCUUGAUUACUUGUUUC [hsa-miR-26a-2-3p]”, for which the percent viability with MCF10A [1] stood at 138%. In addition, the “5+ nucleoli phenotype percent effect” value with MCF10A [2] was determined as 2.15%. Moreover, the “one-nucleolus phenotype percent effect” value in the series with MCF10A [3] was -7.71%.

Consider “CCUAUUCUUGGUUACUUGCACG [hsa-miR-26a-1-3p]”, for which, in the series on MCF10A [1], the percent viability turned out to be 49.7%. The “5+ nucleoli phenotype percent effect” value with MCF10A [2] was -5.8%. Further, in the series on MCF10A [3], the “one-nucleolus phenotype percent effect” value turned out to be 4.57%.

On to “CCUCAAAUGUGGAGCACUAUUCU [hsa-miR-372-5p]”, for which, in the series with MCF10A [1], the percent viability is 140%. In addition, the “5+ nucleoli phenotype percent effect” value in the series with MCF10A [2] was determined as 77.2%. Also, the “one-nucleolus phenotype percent effect” value in the series on MCF10A [3] is -27.9%.

As for “CCUCACCACCCCUUCUGCCUGCA [hsa-miR-6511b-3p]”, the percent viability in the series on MCF10A [1] is 69.7%. Moreover, the “5+ nucleoli phenotype percent effect” value with MCF10A [2] worked out at 22.9%. Also, the “one-nucleolus phenotype percent effect” value in the series on MCF10A [3] was -22.7%.

For “CCUCACCAUCCCUUCUGCCUGC [hsa-miR-6511a-3p]”, the percent viability with MCF10A [1] is 41.3%. In addition, the “5+ nucleoli phenotype percent effect” value with MCF10A [2] turned out to be 24.1%. The “one-nucleolus phenotype percent effect” value with MCF10A [3] is -11.2%.

Consider “CCUCACCCAGCUCUCUGGCCCUCU [hsa-miR-6862-3p]”, for which the percent viability in the series on MCF10A [1] was determined as 72%. The “5+ nucleoli phenotype percent effect” value in the series with MCF10A [2] is 15.4%. In addition, the “one-nucleolus phenotype percent effect” value in the series with MCF10A [3] is -26.5%.

With CCUCAGAUCAGAGCCUUGC [hsa-miR-4330], in the series with MCF10A [1], the percent viability was found to be 91.9%. For the same sequence, the “5+ nucleoli phenotype percent effect” value in the series with MCF10A [2] came to 59.5%. The “one-nucleolus phenotype percent effect” value with MCF10A [3] was -32.8%.

Turning to CCUCAGGGCUGUAGAACAGGGCU [hsa-miR-1266], the percent viability in the series with MCF10A [1] was determined as 49.2%. For the same sequence, the “5+ nucleoli phenotype percent effect” value in the series with MCF10A [2] was 16.1%. Also, the “one-nucleolus phenotype percent effect” value with MCF10A [3] came to 12.6%.

Take “CCUCCAAAGGGAAGCGCUUUCUGUU [hsa-miR-519d-5p]”: the percent viability in the series on MCF10A [1] is 65.3%. Also, the “5+ nucleoli phenotype percent effect” value in the series with MCF10A [2] was determined as 21.8%. Further, in the series on MCF10A [3], the “one-nucleolus phenotype percent effect” value is -10.6%.

For the sequence CCUCCCACACCCAAGGCUUGCA [hsa-miR-532-3p], the percent viability in the series on MCF10A [1] turned out to be 38.6%. Besides, the “5+ nucleoli phenotype percent effect” value in the series on MCF10A [2] was found to be 23.9%. The “one-nucleolus phenotype percent effect” value with MCF10A [3] came to 5.19%.

For the sequence CCUCCCAUGCCAAGAACUCCC [hsa-miR-2116-3p], in the series on MCF10A [1], the percent viability is 95.6%. Further, the “5+ nucleoli phenotype percent effect” value in the series on MCF10A [2] turned out to be 58.4%. Moreover, the “one-nucleolus phenotype percent effect” value with MCF10A [3] was -24.7%.

Turning to “CCUCCCUGCCCGCCUCUCUGCAG [hsa-miR-7113-3p]”, the percent viability in the series on MCF10A [1] is 70.5%. Also, the “5+ nucleoli phenotype percent effect” value with MCF10A [2] was found to be 57.3%. The “one-nucleolus phenotype percent effect” value in the series on MCF10A [3] is -20.6%.

On to “CCUCCGUGUUACCUGUCCUCUAG [hsa-miR-3605-3p]”, for which, in the series on MCF10A [1], the percent viability was 92.7%. Besides, the “5+ nucleoli phenotype percent effect” value in the series with MCF10A [2] was -3.31%. In addition, the “one-nucleolus phenotype percent effect” value in the series with MCF10A [3] is 0.086%.

Consider CCUCCUGAUGAUUCUUCUUC [hsa-miR-3653-5p], for which the percent viability with MCF10A [1] amounted to 159%. Besides, in the series with MCF10A [2], the “5+ nucleoli phenotype percent effect” value came out at 32.7%. In the series on MCF10A [3], the “one-nucleolus phenotype percent effect” value is -22.7%.
